In PMC11743793, “Structural insights into human topoisomerase 3β DNA and RNA catalysis and nucleic acid gate dynamics” (Nature Communications, 2025):
Numbering of substitutions follows the chain as printed.

Key:
[1] = biological target: T1, human TOP3Bcore-Y336F (1-612 aa) (human, UniProt O95985 1-612, Y336F); test: cryo-EM structure; cTOP3B heterodimer (wild type, Y336F or K10M; 3 mg/ml) mixed with equimolar gapped 43-mer DNA or RNA; 25 mM Bis-Tris pH 6.8, 0.1 M KCl, 0.5 mM MnCl2 (5 mM for the rejoining complexes), 0.1% octyl β-D-glucopyranoside, 4 mM DTT, 2% glycerol; RT; details: both partners purified
T1 construct: DNA topoisomerase 3-beta (TOP3B), human, core, residues 1-612, catalytic tyrosine changed to phenylalanine; also called TOP3B chain of cTOP3B-Y336F; not shown: His8, N-terminal, cleaved; MBP, N-terminal, cleaved
T1 sequence (looked up): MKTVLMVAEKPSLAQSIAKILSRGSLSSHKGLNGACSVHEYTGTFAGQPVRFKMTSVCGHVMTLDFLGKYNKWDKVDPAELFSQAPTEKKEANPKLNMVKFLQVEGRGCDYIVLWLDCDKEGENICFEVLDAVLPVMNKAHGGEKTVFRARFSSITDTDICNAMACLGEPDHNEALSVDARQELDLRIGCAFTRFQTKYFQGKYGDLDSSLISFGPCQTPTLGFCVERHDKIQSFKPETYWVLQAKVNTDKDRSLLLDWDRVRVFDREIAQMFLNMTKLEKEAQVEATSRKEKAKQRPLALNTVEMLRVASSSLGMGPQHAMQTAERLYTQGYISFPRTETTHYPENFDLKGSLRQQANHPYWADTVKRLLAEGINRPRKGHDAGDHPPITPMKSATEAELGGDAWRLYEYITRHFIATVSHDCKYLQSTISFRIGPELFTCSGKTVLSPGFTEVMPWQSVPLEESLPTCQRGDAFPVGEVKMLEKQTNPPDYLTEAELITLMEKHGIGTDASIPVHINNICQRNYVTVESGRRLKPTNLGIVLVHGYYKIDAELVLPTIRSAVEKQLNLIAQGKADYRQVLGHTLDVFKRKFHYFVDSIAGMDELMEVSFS

[2] = biological target: T2, human TOP3Bcore-K10M (1-612 aa) (human, UniProt O95985 1-612, K10M); test: as above; details: both partners purified
T2 construct: DNA topoisomerase 3-beta (TOP3B), human, core, residues 1-612, rejoining-deficient mutant; In the rejoining complexes Y336 carries the tyrosyl-phosphodiester linkage to the cleaved DNA/RNA (PTR336); also called TOP3B chain of cTOP3B-K10M; not shown: His8, N-terminal, cleaved; MBP, N-terminal, cleaved
T2 sequence (looked up): T1 sequence (looked up) with K10M, F336Y

[3] = biological target: T3, human full-length TOP3B(Y336F) (human, UniProt O95985 1-862, Y336F); test: cryo-EM structure; full-length TOP3B(Y336F)-TDRD3(1-190 aa) with a DNA mismatch bubble or a short R-loop substrate; cryo-EM volumes; details: both partners purified
T3 construct: DNA topoisomerase 3-beta (TOP3B), human, full length; residues 1-717 resolved in the apo map; not shown: His8, N-terminal, cleaved; MBP, N-terminal, cleaved
T3 sequence (looked up): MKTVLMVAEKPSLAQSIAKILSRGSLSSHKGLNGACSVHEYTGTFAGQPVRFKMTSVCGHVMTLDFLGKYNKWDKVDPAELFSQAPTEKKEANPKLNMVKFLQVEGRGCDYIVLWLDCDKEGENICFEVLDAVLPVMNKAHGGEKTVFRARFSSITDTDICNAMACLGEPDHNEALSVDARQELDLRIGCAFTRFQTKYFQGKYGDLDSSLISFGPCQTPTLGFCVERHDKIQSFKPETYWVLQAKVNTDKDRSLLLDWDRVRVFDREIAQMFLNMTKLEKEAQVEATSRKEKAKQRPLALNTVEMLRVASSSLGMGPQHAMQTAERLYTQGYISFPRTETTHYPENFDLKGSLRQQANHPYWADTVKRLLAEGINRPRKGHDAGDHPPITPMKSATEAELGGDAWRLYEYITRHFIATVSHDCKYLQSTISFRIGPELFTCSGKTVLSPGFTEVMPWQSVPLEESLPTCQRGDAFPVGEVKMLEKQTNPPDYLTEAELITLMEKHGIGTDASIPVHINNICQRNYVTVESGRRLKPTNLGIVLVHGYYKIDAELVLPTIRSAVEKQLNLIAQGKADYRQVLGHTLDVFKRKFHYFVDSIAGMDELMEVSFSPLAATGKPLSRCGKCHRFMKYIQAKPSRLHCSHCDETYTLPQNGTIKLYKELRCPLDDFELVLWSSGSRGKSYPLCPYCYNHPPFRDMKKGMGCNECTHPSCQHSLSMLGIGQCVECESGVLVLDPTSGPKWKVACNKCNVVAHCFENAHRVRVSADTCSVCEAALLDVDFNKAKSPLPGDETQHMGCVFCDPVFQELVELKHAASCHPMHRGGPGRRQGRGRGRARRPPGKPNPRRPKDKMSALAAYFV

[4] = biological target: the molecule itself; test: cryo-EM structure; cTOP3B mixed with a DNA bubble (11-nt strand opposite 13 unmatched nucleotides) at about 1:1; species with two cTOP3B on one DNA bubble, ~4.3 Å map from 63,000 particles

B1: N-terminal fragment of human TDRD3 (1-171 aa) containing its DUF domain and OB-fold (domain or fragment, UniProt Q9H7E2 1-171, looked up)
chain: MLRLQMTDGHISCTAVEFSYMSKISLNTPPGTKVKLSGIVDIKNGFLLLNDSNTTVLGGEVEHLIEKWELQRSLSKHNRSNIGTEGGPPPFVPFGQKCVSHVQVDSRELDRRKTLQVTMPVKPTNDNDEFEKQRTAAIAEVAKSKETKTFGGGGGGARSNLNMNAAGNRNR
notes: Tudor domain-containing protein 3 (TDRD3), human, residues 1-171 (DUF domain and OB-fold); also called TDRD3 chain of cTOP3B; OB (in TOP3Bcore-OB); not shown: His8, N-terminal, cleaved; MBP, N-terminal, cleaved
binding result [1]: binds | binding result [2]: binds

B2: human TDRD3(1-190 aa) (domain or fragment, UniProt Q9H7E2 1-190, looked up)
chain: MLRLQMTDGHISCTAVEFSYMSKISLNTPPGTKVKLSGIVDIKNGFLLLNDSNTTVLGGEVEHLIEKWELQRSLSKHNRSNIGTEGGPPPFVPFGQKCVSHVQVDSRELDRRKTLQVTMPVKPTNDNDEFEKQRTAAIAEVAKSKETKTFGGGGGGARSNLNMNAAGNRNREVLQKEKSTKSEGKHEGVY
notes: Tudor domain-containing protein 3 (TDRD3), human, residues 1-190; not shown: His8, N-terminal, cleaved; MBP, N-terminal, cleaved
binding result [3]: binds

B3: human TOP3Bcore (1-612 aa), wild type (domain or fragment, UniProt O95985 1-612, looked up)
chain: T1 sequence (looked up) with F336Y
notes: DNA topoisomerase 3-beta (TOP3B), human, core, residues 1-612; In the DNA post-cleavage complex the catalytic Y336 is covalently linked to the DNA scissile phosphate (PTR336); Tags removed by PreScission Protease before SEC; also called hsTOP3Bcore(1-612AA); TOP3B chain of cTOP3B; not shown: His8, N-terminal, cleaved; MBP, N-terminal, cleaved
binding result [4]: binds
